From the supplement of paper PMC10899765

Columns and labels:
Settings in all cases: 20 nM; 72 h
MCF10A [1] = experiment: percent viability (nuclei count relative to siNT); higher = more viable cells
Experimental: (§1)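 After 72 h, cells were fixed and stained with Hoechst and anti-fibrillarin, and nucleoli per nucleus were counted with CellProfiler. Values are plate-adjusted percent effect for the one-nucleolus and 5+ nucleoli phenotypes, normalised to siNT (0%) and to the positive controls siNOL11 or siKIF11 (100%), as the mean of biological triplicates. Percent viability is the nuclei count relative to siNT.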

MCF10A [2] = experiment: one-nucleolus phenotype percent effect (relative to siNT 0% and siNOL11 100%); higher = more cells with one nucleolus (ribosome biogenesis inhibition)
Experimental: as §1

MCF10A [3] = experiment: 5+ nucleoli phenotype percent effect (relative to siNT 0% and siKIF11 100%); higher = more cells with five or more nucleoli
Experimental: as §1

| Sequence | percent viability (MCF10A [1]) | one-nucleolus phenotype percent effect (MCF10A [2]) | 5+ nucleoli phenotype percent effect (MCF10A [3]) |
| --- | --- | --- | --- |
| AAAAGUAAUUGCGAGUUUUACC [hsa-miR-548a-5p] | 172% | -20.8% | 9.73% |
| CUCCAGAGGGAAGUACUUUCU [hsa-miR-520a-5p] | 34.6% | 23.8% | -28.3% |
| AAAAGCAUCAGGAAGUACCCA [hsa-miR-4422] | 58.8% | -9.65% | 2.92% |
| UUCCAGCCCUGGUAGGCGCCGCG [hsa-miR-6720-5p] | 17.9% | 45% | -23.2% |
| AGGGCUGGACUCAGCGGCGGAGCU [hsa-miR-5001-5p] | 42.6% | 23.3% | -6.45% |
| UGUCUUCUCUCCUCCCAAACAG [hsa-miR-6740-3p] | 9.9% | 42.8% | -27.6% |
| CAUCAUCGUCUCAAAUGAGUCU [hsa-miR-136-3p] | 37.4% | -9.83% | 22.1% |
| CGUCCCGGGGCUGCGCGAGGCA [hsa-miR-4449] | 75.7% | -6.92% | -7.62% |
| AGGGAUCGCGGGCGGGUGGCGGCCU [hsa-miR-638] | 88% | -7.05% | 9.85% |
| UCUCACACAGAAAUCGCACCCGU [hsa-miR-342-3p] | 78.4% | -2.78% | -4.22% |
| GCCCUGAACGAGGGGUCUGGAG [hsa-miR-345-3p] | 61% | -13.5% | 29.8% |
| UGUGGGUGGGAAGGACUGGAUU [hsa-miR-6748-5p] | 22.6% | 30.1% | -25.6% |
| UAUGUGACCUCGGAUGAAUCA [hsa-miR-4501] | 19.8% | 40.8% | -23.6% |
| GGCUACAACACAGGACCCGGGC [hsa-miR-187-5p] | 136% | -18.2% | 15.6% |
| AUGUGGGCUCAGGCUCA [hsa-miR-4296] | 26.9% | 44.2% | -35.4% |
| UGGGAGCCAUGAGGGUCUGUGC [hsa-miR-6827-5p] | 15.6% | 26.3% | -1.65% |
| UGGGGGAGGAAGGACAGGCCAU [hsa-miR-7111-5p] | 15.3% | 36.7% | -6.11% |
| GUGAGUGUGGAUCCUGGAGGAAU [hsa-miR-4658] | 52.7% | -8.09% | 0.899% |
| UUGAACUGUUAAGAACCACUGGA [hsa-miR-203b-3p] | 36.7% | 29.5% | -29.1% |
| GUGAACGGGCGCCAUCCCGAGG [hsa-miR-887] | 73.2% | -1.47% | -3.19% |
| AGCUGGUAAAAUGGAACCAAAU [hsa-miR-133a-5p] | 30.7% | 7.21% | -4.69% |
| AGCAUGACAGAGGAGAGGUGG [hsa-miR-6076] | 33.8% | 7.38% | -17.6% |
| UGUGUUAGAAUAGGGGCAAUAA [hsa-miR-3152-3p] | 35.1% | 4.92% | -11.7% |

| Sequence | percent viability (MCF10A [1]) | one-nucleolus phenotype percent effect (MCF10A [2]) | 5+ nucleoli phenotype percent effect (MCF10A [3]) |
| --- | --- | --- | --- |
| UAUCGUAUCGUAUUGUAUUGU [hsa-miR-5686] | 93.8% | -22.7% | 39.8% |
| GGGGAGCGAGGGGCGGGGC [hsa-miR-6090] | 164% | -21.8% | 36.1% |
| AAAGUGCAUCUUUUUAGAGGAU [hsa-miR-519c-3p] | 119% | -25.5% | 110% |
| UGGGGCGGAGCUUCCGGAGGCC [hsa-miR-3180-3p] | 12.9% | 8% | 0.481% |
| UCUGAAUUGUAAGAGUUGUUA [hsa-miR-4680-3p] | 114% | -21.5% | 14.3% |
| AGAGGACCCGUAGCUGCUAGAAGG [hsa-miR-4751] | 106% | -23.3% | 41.7% |
| CAGGCACGGGAGCUCAGGUGAG [hsa-miR-3622a-5p] | 27.1% | 42.3% | -21.7% |
| UCAUUAUAUGUAUGAUCUGGAC [hsa-miR-4528] | 57.6% | -16.8% | -2.39% |
| UAUAGAGAGCAGGAAGAUUAAUGU [hsa-miR-3976] | 78.3% | -15.3% | 31.2% |
| UGGCUUUUAACUUUGAUGGC [hsa-miR-3119] | 17.4% | 56.7% | -21.8% |
| AUGCACCUGGGCAAGGAUUCUG [hsa-miR-500a-3p] | 34.2% | -2.54% | -12.9% |
| UCUGGAUUGAAGAGACGACCCA [hsa-miR-6839-5p] | 36.1% | 2.28% | -12.4% |
| UCUGUGGAGUGGGGUGCCUGU [hsa-miR-7114-5p] | 16% | 15% | 7.56% |
| AAGUGCCCCCACAGUUUGAGUGC [hsa-miR-371b-3p] | 84.2% | -25.4% | 68.5% |
| AAAGGUAAUUGUGGUUUCUGC [hsa-miR-548ag] | 75.7% | -6.82% | 4.63% |
| CAAGUCUUAUUUGAGCACCUGUU [hsa-miR-1264] | 70% | -11.7% | 21.1% |
| ACGGGCAGGGCAGUGCACCCUG [hsa-miR-7112-5p] | 31.2% | 12.5% | 2.37% |
| AGCUACAGUUACUUUUGCACCA [hsa-miR-548v] | 68.4% | -5.59% | -8.87% |
| GCUCGGACUGAGCAGGUGGG [hsa-miR-3917] | 57.6% | -20.1% | 32.5% |
| UGGGCUGGCAGGGCAAGUGCUG [hsa-miR-4498] | 9.7% | 38.7% | -6.13% |
| UGACUGCCUCACUGACCACUU [hsa-miR-5002-3p] | 50.5% | -1.84% | -20.8% |
| ACUCCAUUUGUUUUGAUGAUGGA [hsa-miR-136-5p] | 107% | -13% | 34.2% |
